# Patent US20230391845A1, “GLP-1, GIP AND GLUCAGON RECEPTOR TRIPLE AGONISTS” (priority 2020, published 2023)
# Where no end group is shown, it is not given here. [ ]: non-standard residue; d: D form. Aib = CC(C)(N)C(=O)O
# T1: human glucose-dependent insulinotropic polypeptide receptor (human, UniProt P48546 22-466)
# T1 sequence (looked up): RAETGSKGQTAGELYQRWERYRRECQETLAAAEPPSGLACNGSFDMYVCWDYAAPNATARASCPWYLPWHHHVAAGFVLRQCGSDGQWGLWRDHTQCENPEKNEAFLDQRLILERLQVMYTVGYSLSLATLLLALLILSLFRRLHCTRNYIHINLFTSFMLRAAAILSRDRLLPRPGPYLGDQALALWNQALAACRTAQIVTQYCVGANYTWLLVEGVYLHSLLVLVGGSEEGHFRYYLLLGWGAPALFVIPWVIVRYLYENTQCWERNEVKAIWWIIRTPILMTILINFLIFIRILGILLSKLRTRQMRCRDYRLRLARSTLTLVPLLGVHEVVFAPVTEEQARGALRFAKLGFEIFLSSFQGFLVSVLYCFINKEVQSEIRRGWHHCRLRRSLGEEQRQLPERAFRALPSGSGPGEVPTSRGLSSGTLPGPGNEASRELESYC
# B1: Compound No. 52 (peptide)
# peptide: H[Aib]HGTFTSDYSILLEKQAAQEFVQWLLEGGPSSGAPPPS-OH
# modifications: not fully specified (residue 16); printed as H-Aib-HGTFTSDYSILLE-K[(2S)-2-amino-6-[[(2S)-2-amino-6-[[(4S)-4-carboxy-4-(17-carboxyheptadecanoylamino)butanoyl]amino]hexanoyl]amino]hexanoyl]-QAAQEFVQWLLEGGPSSGAPPPS-OH
# B2: Compound No. 53 (peptide)
# peptide: H[Aib]HGTFTSDYSILLEKQAAQEFVQWLLEGGPSSGAPPPS-OH
# modifications: not fully specified (residue 16); printed as H-Aib-HGTFTSDYSILLE-K[(2S)-2-amino-6-[[(2S)-2-amino-6-[[(4S)-4-carboxy-4-(19-carboxynonadecanoylamino)butanoyl]amino]hexanoyl]amino]hexanoyl]-QAAQEFVQWLLEGGPSSGAPPPS-OH
# B3: Compound No. 54 (peptide)
# peptide: H[Aib]HGTFTSDYSILLEKQAAREFVQWLLEGGPSSGAPPPS-OH
# modifications: not fully specified (residue 16); printed as H-Aib-HGTFTSDYSILLE-K[(2S)-2-amino-6-[[(2S)-2-amino-6-[[(4S)-4-carboxy-4-(17-carboxyheptadecanoylamino)butanoyl]amino]hexanoyl]amino]hexanoyl]-QAAREFVQWLLEGGPSSGAPPPS-OH
# B4: Compound No. 55 (peptide)
# peptide: H[Aib]HGTFTSDYSILLEKQAAREFVQWLLEGGPSSGAPPPS-OH
# modifications: not fully specified (residue 16); printed as H-Aib-HGTFTSDYSILLE-K[(2S)-2-amino-6-[[(2S)-2-amino-6-[[(4S)-4-carboxy-4-(19-carboxynonadecanoylamino)butanoyl]amino]hexanoyl]amino]hexanoyl]-QAAREFVQWLLEGGPSSGAPPPS-OH
# B5: Compound No. 56 (peptide)
# peptide: H[Aib]HGTFTSDYSILLEKQAAHEFVQWLLEGGPSSGAPPPS-OH
# modifications: not fully specified (residue 16); printed as H-Aib-HGTFTSDYSILLE-K[(2S)-2-amino-6-[[(2S)-2-amino-6-[[(4S)-4-carboxy-4-(17-carboxyheptadecanoylamino)butanoyl]amino]hexanoyl]amino]hexanoyl]-QAAHEFVQWLLEGGPSSGAPPPS-OH
# B6: Compound No. 4 (peptide)
# peptide: Y[Aib]QGTFTSDYSIYLDKQAA[Aib]KFVQWLLEGGPSSGAPPPS-NH2
# modifications: not fully specified (residue 21); printed as Y-Aib-QGTFTSDYSIYLDKQAA-Aib-K[2-[2-[2-[[2-[2-[2-[[(4S)-4-carboxy-4-(17-carboxyheptadecanoylamino)butanoyl]amino]ethoxy]ethoxy]acetyl]amino]ethoxy]ethoxy]acetyl]-FVQWLLEGGPSSGAPPPS-NH2
# B7: Compound No. 5 (peptide)
# peptide: Y[Aib]QGTFTSDYSIYLDKQAA[Aib]EFVNWLLAGGPSSGAPPPS-NH2
# modifications: not fully specified (residue 16); printed as Y-Aib-QGTFTSDYSIYLD-K[2-[2-[2-[2-[2-[2-[[[(4S)-4-carboxy-4-(19-carboxynonadecanoylamino) butanoyl]amino]ethoxy]ethoxy]acetyl]amino]ethoxy]ethoxy]acetyl]-QAA-Aib-EFVNWLLAGGPSSGAPPPS-NH2
# B8: Compound No. 6 (peptide)
# peptide: Y[Aib]QGTFTSDYSIYLDKQAA[Aib]EFVNWLLAGGPSSGAPPPS-NH2
# modifications: not fully specified (residue 16); printed as Y-Aib-QGTFTSDYSIYLD-K[2-[2-[2-[[2-[2-[2-[[(4S)-4-carboxy-4-[[4-[(19-carboxynonadecanoylamino) methyl]cyclohexanecarbonyl]amino]butanoyl]amino]ethoxy ]ethoxy]acetyl]amino]ethoxy]ethoxy]acetyl]-QAA-Aib-EFVNWLLAGGPSSGAPPPS-NH2
# B9: Compound No. 7 (peptide)
# peptide: Y[Aib]QGTFTSDYSIYLDKQAA[Aib]KFVQWLLEGGPSSGAPPPS-NH2
# modifications: not fully specified (residue 21); printed as Y-Aib-QGTFTSDYSIYLDKQAA-Aib-K[2-[2-[2-[[2-[2-[2-11(4S)-4-carboxy-4-(19-carboxynonadecanoylamino)butanoyl]amino]ethoxy]ethoxy]acetyl]amino]ethoxy]ethoxy]acetyl]-FVQWLLEGGPSSGAPPPS-NH2
# B10: Compound No. 8 (peptide)
# peptide: Y[Aib]QGTFTSDYSIYLDKQAA[Aib]KFVQWLLEGGPSSGAPPPS-NH2
# modifications: not fully specified (residue 21); printed as Y-Aib-QGTFTSDYSIYLDKQAA-Aib-K[2-[2-[2-[[2-[2-[2-[[(4S)-4-carboxy-4-[[4-[(19-carboxynonadecanoylamino)methyl]cyclohexanecarbonyl]amino]butanoyl]amino]ethoxy]ethoxy]acetyl]amino]ethoxy]ethoxy]acetyl]-FVQWLLEGGPSSGAPPPS-NH2
# B11: Compound No. 9 (peptide)
# peptide: Y[Aib]QGTFTSDYSIYLDKKAA[Aib]EFVNWLLAGGPSSGAPPPS-NH2
# modifications: not fully specified (residue 17); printed as Y-Aib-QGTFTSDYSIYLDK-K[2-[2-[2-[[2-[2-[2-[[(4S)-4-carboxy-4-(19-carboxynonadecanoylamino)butanoyl]amino]ethoxy]ethoxy]acetyl]amino]ethoxy]ethoxy]acetyl]-AA-Aib-EFVNWLLAGGPSSGAPPPS-NH2
# B12: Compound No. 10 (peptide)
# peptide: Y[Aib]QGTFTSDYSIYLDKKAA[Aib]EFVNWLLAGGPSSGAPPPS-NH2
# modifications: not fully specified (residue 17); printed as Y-Aib-QGTFTSDYSIYLDK-K[2-[2-[2-[[2-[2-[2-[[(4S)-4-carboxy-4-[[4-[(19-carboxynonadecanoylamino)methyl]cyclohexanecarbonyl]amino]butanoyl]amino]ethoxy]ethoxy]acetyl]amino]ethoxy]ethoxy]acetyl]-AA-Aib-EFVNWLLAGGPSSGAPPPS-NH2
# Molecular target: human glucagon-like peptide 1 receptor (human, UniProt P43220 24-463)
# Assay: cell-based or functional assay
row,Binder,hGLP-1R CRE Luc EC50 (pM)
1,B1,0.8
2,B2,2.7
3,B3,1.5
4,B4,2
5,B5,1.1
6,B6,9.4
7,B7,7.2
8,B8,5.1
9,B9,8.2
10,B10,12.1
11,B11,4.4
12,B12,4.7

# Molecular target: human glucagon receptor (human, UniProt P47871 26-477)
# Assay: cell-based or functional assay
# Chain of human glucagon receptor (P47871 26-477): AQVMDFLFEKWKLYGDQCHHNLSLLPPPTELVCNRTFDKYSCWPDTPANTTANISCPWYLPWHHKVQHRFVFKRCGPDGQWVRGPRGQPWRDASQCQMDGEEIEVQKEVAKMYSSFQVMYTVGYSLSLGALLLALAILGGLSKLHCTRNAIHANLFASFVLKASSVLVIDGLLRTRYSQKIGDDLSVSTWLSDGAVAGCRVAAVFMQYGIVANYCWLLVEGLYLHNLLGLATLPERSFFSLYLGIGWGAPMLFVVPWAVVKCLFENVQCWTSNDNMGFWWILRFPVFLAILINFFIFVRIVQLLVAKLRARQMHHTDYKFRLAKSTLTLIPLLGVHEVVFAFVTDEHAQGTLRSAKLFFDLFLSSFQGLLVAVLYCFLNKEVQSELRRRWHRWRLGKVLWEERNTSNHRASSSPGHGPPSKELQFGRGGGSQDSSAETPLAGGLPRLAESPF
row,Binder,hGcgR CRE Luc EC50 (pM)
1,B1,14.9
2,B2,22
3,B3,22.8
4,B4,18.8
5,B5,6.4
6,B6,31.4
7,B7,205
8,B8,216
9,B9,61.3
10,B10,91.9
11,B11,116
12,B12,250

# Molecular target: T1, human glucose-dependent insulinotropic …
# Assay: cell-based or functional assay
row,Binder,hGIPR CRE Luc EC50 (pM)
1,B1,6.6
2,B2,4.8
3,B3,28
4,B4,7.5
5,B5,2.3
6,B6,60.3
7,B7,20.6
8,B8,7.7
9,B9,65.5
10,B10,45.5
11,B11,48.6
12,B12,27.6
